One experiment concerns the target T1, human CRF receptor (Homo sapiens, UniProt P34998).
T1 construct: human CRF receptor (prepared from cultured SK-N-SH cells); endogenous in cells; host or cells: SK-N-SH cells (human neuroblastoma), receptor preparation
T1 sequence (P34998 24-415): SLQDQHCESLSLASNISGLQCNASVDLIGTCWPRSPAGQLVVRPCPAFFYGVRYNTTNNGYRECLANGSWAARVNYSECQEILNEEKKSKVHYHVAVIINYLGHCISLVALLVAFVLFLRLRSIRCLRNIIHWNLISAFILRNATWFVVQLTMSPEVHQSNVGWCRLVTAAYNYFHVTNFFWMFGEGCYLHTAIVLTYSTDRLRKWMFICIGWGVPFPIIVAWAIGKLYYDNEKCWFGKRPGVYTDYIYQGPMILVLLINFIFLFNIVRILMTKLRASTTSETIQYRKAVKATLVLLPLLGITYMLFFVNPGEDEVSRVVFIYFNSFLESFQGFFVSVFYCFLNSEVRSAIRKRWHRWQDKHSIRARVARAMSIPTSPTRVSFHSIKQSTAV
Description: ability to bind to the human CRF receptor (prepared from cultured SK-N-SH cells). The class given is binding. The note with it: products dissolved in 0.05M sodium phosphate, pH 7.0. As to the method:
The products were dissolved in 0.05M sodium phosphate, pH 7.0, and tested for their ability to bind to the human CRF receptor (prepared from cultured SK-N-SH cells).

For experiment [1], the target named is human CRF receptor (human). Description: receptor binding assay on human CRF receptor prepared from cultured SK-N-SH cells.

What is called IC50 is the concentration that gives 50% inhibition. Lower therefore signals higher potency. Consider `CC[C@H](C)[C@H](NC(=O)[C@H](CC(=O)O)NC(=O)[C@H](CC(C)C)NC(=O)[C@H](CC(C)C)NC(=O)[C@H](CCCCN)NC(=O)[C@H](CCCNC(=N)N)NC(=O)[C@H](CC(N)=O)NC(=O)[C@H](CO)NC(=O)[C@H](Cc1c[nH]cn1)NC(=O)[C@H](C)NC(=O)[C@H](CCC(N)=O)NC(=O)[C@H](CCC(N)=O)NC(=O)[C@H](C)NC(=O)[C@H](CC(C)C)NC(=O)[C@H](CCC(N)=O)NC(=O)[C@H](CC(=O)O)NC(=O)[C@H](C)NC(=O)[C@H](CCCCN)NC(=O)[C@@H](NC(=O)[C@H](CC[S+](C)[O-])NC(=O)[C@H](CCC(=O)O)NC(=O)[C@H](CC(C)C)NC(=O)[C@@H](NC(=O)[C@H](CCC(=O)O)NC(=O)[C@H](CCCNC(=N)N)NC(=O)[C@H](CC(C)C)NC(=O)[C@H](CC(C)C)NC(=O)[C@H](Cc1c[nH]cn1)NC(=O)[C@H](Cc1ccccc1)NC(=O)[C@@H](NC(=O)[C@H](CC(C)C)NC(=O)[C@H](CC(=O)O)NC(=O)[C@H](CC(C)C)NC(=O)[C@H](CO)NC(=O)[C@@H](NC(=O)[C@@H]1CCCN1C(=O)[C@@H]1CCCN1C(=O)[C@H](CCC(=O)O)NC(=O)[C@H](CCC(N)=O)NC(=O)[C@@H](N)CO)[C@@H](C)CC)[C@@H](C)O)C(C)C)[C@@H](C)O)C(=O)N[C@@H](C)C(N)=O` (stereo partly shown) [CRF [Met^21 O]], for which, at human CRF receptor, the IC50 was 5 nM. With underivatized CRF [Met^21 O], the IC50 in experiment [1] worked out at 5 nM.

B1: N-terminally biotinylated ovine CRF [Met^21 O] (peptide)
peptide: SQEPPISLDLTFHLLREVLEXTKADQLAQQAHSNRKLLDIA
modifications: N-terminal Ser oxidised by periodate to glyoxylyl (=CH-CO-) and coupled as hydrazone to 6-((biotinoyl)amino)caproic acid hydrazide (biotin-X-hydrazide); Met 21 as the sulfoxide (Met^21 O)
B1: the concentration for half-maximal inhibition (IC50) in experiment [1] worked out at 5 nM.

B2: Lucifer Yellow conjugate of ovine CRF [Met^21 O] (peptide)
peptide: B1 peptide
modifications: N-terminal Ser oxidised by periodate to glyoxylyl (=CH-CO-) and coupled as hydrazone to Lucifer Yellow; Met 21 as the sulfoxide (Met^21 O)
For the molecule B2, in experiment [1], the IC50 turned out to be 5 nM.
